Test: label from the status in PepcDB records

For “YALTEGEDYLVLDKPIPQEQPGKIEVLEFFGYFCVHCHHFDPLLLKLGKALPSDTYLRTEHVVWRPEMLGLARMAAAVKLSGLKYQANSAVFKAVYEQKIRLENRAVAGKWALSQKGFDGKKLMRAYDSPEAAAVALKMQKLTEQYGIDSTPTVIVGGKYRVIFNNGFDGGVHTIKELVAK”, the protein production was “failed”.
With “MDISMKQSKRNLWWSVCAGLLFCSWGCSSQVSDKPVTLETLLDEMVSVEEQALYPVPSYTCRQESSYDRASVSPDSAGWFANSDGFGIKRVDTVAGRIEKVMFDEVGPGAITRIWITTIDKRGTWRFYFDGSDQPGWIIPAYDLMRINVPGLGKGMLQAHTSYTPEGKGGNTLFLPIPYARGCKVTFEDEPGVNPTPKYYHINFRKYPEGTQVETFSKEVVERAAQKIAEVDNRLLQPVAGRKGEILREEKSILPSDSLVIPLPAGENAVYEVKFNIRIDNPEQYAQLMRELVFSAGFDGKQTVWVPLSDFSGGGMGAPKVDSWYLTSDGKGNISSRWLMPYQKDGVLKVLNLSSRSVAATMEVNVAPLKWNKDRSLYFYASWRQENGIYIHDKPEEADQCVEWNFATLKGRGVYKGDLLSLYNHAPLWYGEGDEKIWVDDDTFPSHFGTGTEDYYNSSWAPVVPFYTPFGGAPRADLESSHGYNAFYRTRHLDGIPFNKSFKFDIEMLGWKRGEADYATTIYWYGDPEAQVFGTSGIEEARRQLLPAVEASADLEHHHHHH” the protein production was “not failed”.
For “YDQVTRIIGVAKDITDQIEASESLRDSEQRYRMLAESISDVIFSTDSKLSLNYVSPSVHAVLGYDVEWIFQNGWQSTIANPQQLSGIYTLMDRVSKALDKPEQLAQLRSQVQTQLFLFDCLRADGRKIPIELRLVLVWDEHGAFEGVLGVGRDISQQRRAEKDLRMAATVFEHSTS”, the protein production was “failed”.
In the case of “MEQTDITSLIPIAITLIISLTTRNVVVGLFAGVLSGVAMLNGLFTTLGPFETFGVMVKSYISPQLTDSYNAGVIVLLVFIGGFVALMEKSGGGLAFAEKVTLWVKSKFQAQTSAWLGGIIIFFSDLGTPLIVGPVFRPLFDKLKISRQKLAFIIDSTSSPVAILIPFIGWGVYIMGLIQKEFTALNVTDITDWDAFLGAIPYQFYAILAIAIVPLVALKKLDFGPMAKAEAIASKGELHASSDISKEIFTHKNAKASFVWAPLLVMGAVLVFMLAPLGFPFEKVSGSVFRSALSTAYFFAAFTLIILMAMNKVRSLSDGISVYMKGMGNMMQVAIILILAWTLSSVGKELGAAAYIAEQAQNGFPYWLVPAVSFLLAAIISFATGSSWGTFAIMMHLVIPTAITIDAPMFVCIGAVLSGGLFGDHCSPISETTILSSTGAGCDQFEHFKTQLPYALLNGGIALVSFLIAGIFDNPLIFILALIAQVTLVVTLAKLTPENMFNKSKLVAGNQLG”, the protein production is reported as “failed”.
For “MTARARSALLDAEHIVGYTTYVELLPDEITEGADDIYNTPMCGEVSRTEEAIDRALAGNDVAIIGSGDPNVYALAGLALEIIESKGATATMLDFDVVPGVP”, the protein production was “failed”.
For “MWNGREYMSEPASPEKKVIIIAGPNGAGKTTFAEEFLPQEAQCLTFINADLIAAGLAPFEPEQAAFRAGRLMLEEIYNHAQRGQNFAFETTLSGRSYARLIPTWQAQSYIVKLFFLQLLSPELAIARVAQRVRAGGHHVPEAIIRRRFAAGLHNLETLYKLIVDEWVCYDNSGNEPVLINKGGKLLEHHHHHH”, the protein production was “not failed”.
For “MADVGSLGTRLLRIVLGLCALVLVLLALYVSLGRQLVPLVAEYRQQLEDEAGKQLGIPVRIAELTGSWRGFEPLVVARDIQVGDGEQSLRLARVRLAPDLLGSLLARQVRIGSLELEGLKLTLREGEDGQWSLDGLPHSDKPSDPRKLLQFLLQTQRISLLDSQLEVAPRGSAALSLSAVGATLRSSSVGGQSLDARLQLPDGQPLALHAEGRIDSEDWPRSSARFYLSLPQSDWAQWLPAGLTQEWTIVRAKAGGDFWFDWRDGKAQRLVARLLAPQLKASYAARKPVEINDLGMNLFFDREAQGWKVRVGDLAANFGEQRWGEVELLLRRDQQNNEPHWKLQADRVDLTPLVPAIEALAPLPDAAAEWVAGLKPKGILHNLNADFWPQREVPERVSYATNLEKVGISAFHEVPAVENVSGTLTGTLAGGQLDASAQDFMLHLAKVFPEPWRYREARTRMFWSLDDRAFTLGSHLMRVEGEEGSLAGDMLIRLMRDPGAEDYMDLQVGLSDGDARFTAKYLPTQLPGMNKSLANWLKTAIRSGHVEQGYFQWQGSLNRGAAAEAHVMNLYFKVRDGELAYQPGWPALSKTVGEVFVEDSGVRVLASSGNLLNSRVSDVKVDIPLGRPGQTPHLYVDGAVDSNLKDGIKLLQEAPIPTRKIFAGWEGDGPLQGHLTLDIPLDHDEAGKTGVVVDFSTVGATLKMPSPKLDMSEVKGDFRFDLAKGLSAPAVQARVLGSEVRGRIVAEGRGDARTRLLLNGQVAVKSLSDWLGAGQRPLPVSGRLPFQLNLLLDGKDSQLQIDSDLKGAVVDLPAPFGKTAAQARPTQWRMTLDGAERRYWARYDGLASLAYAAPADKPLNGRGALRLGGDPALLPSAQGLRVRGRLAELDWDAWQATLKRYGNGDQAASSAAGLLRGADLRIDSFKGFGQELKNLTVDLARQERAWQLVLVSDLASGRLVLPDARGAPIVVDLDRLNLPKSTLPDENKVEDSDPLAAVDPRSLPAVDVKIGQVALGGQPLGAWSLKVRPGSNGVAFNDLDLDLRGLHVNGSLRWDGSPGNTRSTYQGRIEGKNLADVLKAWNFAPSATSERFRMDINGQWPGSPAYMALKRFSGSMDASLRKGQFVEVEGSAQALRVFGLLNFNAINRRLRLDFSDILGKGLSYDRVKGVLSATDGVYVTREPLKLEGPSSNLELNGTLDLAHDRIDAKLLVTLPLTNNLTLAALIVGGPAVGGAVFVVDKLLGDRVSRFASVQYSVKGPWQDPKISFDKPFEKPR”, the protein production was “failed”.
With “MSIDWAALGSVFGVSLVVTVGLVGLFTLGIVGLTKKESAEGGSAALATTGAYACFAACAAAVAYGIYLIVA” the protein production was “failed”.
In the case of “MSQAVLATETNRRQLQQIISGLSDGVILIETDKARTLLWANEAALAMHGVSTVEQLGGNLREYARRYALRYRNNHPLGLDSYPINRVAAGETFSDVVVEVQAEIDGEPRHWVHRVRSMILEDRNGAPESLVLILSDATDWASAEQRFEKTFNANPAPAVICRLGDLRYIKVNQGFLEMTGYARDQVIGRSVYELDVLEDAEHKELAVERLGQGATIPQMQAELRLPEGGSKLVIVAGQPLDINDEDCMLFSFMDLEPRRKAEIALRQSEERFAKSFRLTPVPTLVCSAEQQIVDVNEAFLDTCGYSSEELLGKTVQDIGFIAEPQAAEQLFGRLEKSGNVMGLDLKVRKKGAEQVDCVAYADTVLIQDSPCYLLVLMDISERKRSELELVGAIEEVMRDASWFSQTLIEKLANVRNTRSAQAPAVTSAELTTREREVLGLIYQGLADKEIAAQLQLAPNTVRNHVATLYSKLDVHSRGEAIVWARERGLFAGSAG”, the protein production is reported as “failed”.
In the case of “MPDSPFVSVVVPVYNDPEGVKDTLHALVDQRDAPAFEVRVVDNDSTDETMQVIEAFAADHPEIYCHTETEIQSSYAARNTGIEHAGGDVIVFLDADVVVERTCLRDISRTFEGSDVDYVGCNVQMYNPGETDTFWTKYDLAMGLPVEHYLRRKRFAPTCALAVRREVIEAVGTFDDELVSGGDKEFGNRVSEAGFRMGFAEGIVAKHPARTSLKRNIQKSTRIGKGQVQLWAGYGLAAHPVSYTRYLPPDPQRVRNRRDAQFDLVSIYLAEILLKYVQSATVLYLYLKRLLKRVSGDTT”, the protein production is reported as “failed”.
In the case of “MKNFLETIEDMILIINREGRLLYANTAVPKKLGYPHEELMSMHILTITSAGKMAEGEKILAELFAGKKESLPLSLEKKEGTSIPAKARIWQGKWHNEPCLFAIIKDLSKEERALEHHHHHH”, the protein production is reported as “not failed”.
With “MPFETPDLLGPSEPVPDRLSANEFLLRPLTPTDAEIDYEAVTESGDRLHGIFGPDDEWPTGLTPEQNRIDVCWHYREHQRRDAFTYGVFDPAETTELGCLYVQPTRIEGYDAAVYYWTAAAAVERGLADEIETACREWVATEWPFGRVAYPGRDVSWQAVPAAGTEGD” the protein production was “failed”.
For “MEEITDGVNNMNLATDSQKKNRIQVSNTKKPLFFYVNLAKRYMQQYNDVELSALGMAIATVVTVTEILKNNGFAVEKKIMTSTVDIKDDARGRPVQKAKIEITLVKSEKFDELMAAANEEKEDAEAQVQN”, the protein production was “not failed”.
With “MPIRVYTKVELALLYAPHLSENAALNNLSRWMRHNKLLMAALEEVGYYKYRHSFTPKEVRLIFRYMGEPGALEHHHHHH” the protein production was “not failed”.
For “MYTRLLVVSLACLLFGVSAFAQPMAPVPDAPLRNAALRMKDKDYRAVRDELRSVPPSPERTFLDGVAARRLEQWPEASELLGVAAKDLPLLADYALFWQAEALMAATRYDEAEEVLQRLVGTWPDSPTLRKARMLLADAQFARKEYRQALASYIRFIELYPSGTDSVTANLKTALCREGLDDPRRAVQELRAIWLAYPASPVAETAEQELKRLEALGFPAVPLTPDELLKRGTTLYNLGKYERALAVFNTIPLKEQLAGFNDRVALKIGETLLKLRRYKDAARTFSSLIEREPKREIADEARFLLARAQNKAGNDDEAFLGFLKLAETAPTSEWADNALLEAAFVRKFQGRYADQLAVLEKLLTTYPGTKLKPRAMWETAWARYNTGDYRSAAESFRLLTASADYRERALYWHGRSLQRIGEETVARQSFAMLAEEYPFSFYTFTATDPAPQEGAIPLIVHDLRQTISPPAGHERARALIAMGLHDQARSELSIARKNGSSRGKGLLGIARLYLEMNDYSSAAAALRGEQPRRMDGETATTWGLLYPRGFSDSVAAEANRHTIPEELIYGLIKAESGFSPVALSPVGAVGLMQLMPSTAKGMVNGSSPANGISARLTDPTFNVGLGVRHLKDLLKQYNGNVVSAVAAYNAGSRPVDRWRRSLAGLREDEFIENIPYYETREYVKKVLTFAEVYRRLYRPAAPALAFLPQVSAPEPPQPAPTNNAPPTAALASPPETSALTAPVRQQP”, the protein production was “failed”.
For “MKRAAAKHLIERYYHQLTEGCGNEACTNEFCASCPTFLRMDNNAAAIKALELYKINAKLCDPHP”, the protein production was “not failed”.
In the case of “MPLHRTPRTGPEPRTLALLAGAGLAAGAAAWAVSRSRENPVVFRPNDDAPDRVARHPEATMPTGRTVTINRPRSELFAFWRDFSNLPQFMESVEHVTVVGDVSRWTLAAPFGRKITLETRIVEEVPDRLIAWRSTDGSDVRAEGAVTFRDAPAGRGTEVEAVVAYVPAGGEAGRLIARLFRLAPAMQGRRELRRFKMLMEAGEIATSRNRKD”, the protein production is reported as “failed”.
In the case of “MIIEYLQLVGLGLVTMLPVANPLTSTTLLLALGSGFTRDERNRQIGRATVYVAAIILASFYAGNAIISSFGISIPGLRIAGGLIVAYIGFTMLFPATSQNEAQAQVEMAPDDPHIQVPGAAHTGPRPRDISFVPLALPGTAGPGTIALIISSASTLHSHGGITLIHHFAVITVTLLLALLFWACLRSAERVMRMLGQSGIDAISRVMGFLLICMGVQFIIDGVFELIRHPPGA”, the protein production is reported as “failed”.
For “MSTDILSAIGLTIIFVGLVLVIVGIVSGIIKSSKKERNENQREETKTEYGGVIFIGPIPIVFGSNKDMAKMALIIGVIMVVLIIAFVVLSYVV”, the protein production was “failed”.
In the case of “MVHQSEMENYNIGQASIEEVSDPAYKGAKIVVIGVGGGGSNMIKHLVEYGVHQDVTPIATNTDGQHLKNNPAPVKILLGKESTGGLGAGGIPDIGRKAAEESANEIKEAIKDAKLVIISTGLGGGTGTGATPTIVKIAKEVGALTIAIVTKPFKYEGNQKRKRAEEGLKELEQSSDSILVIPNDKILLTMKKNASTTECYREVDDVLVRAVSGISTIITKPGNINVDFADLKSALGFKGFALMGIGEATGEESAKLAVQNAIQSPLLDDASIEGAKSIIVFFEHHPDYPMMAYSQACDFIQDQAHQDVDVKFGQHTSDNIPIDHVRVTIIATGAERNSGGASLESIATPSQPVVKQTRKVGNGEYLKIPTEEELSIPTTMRIQQD”, the protein production is reported as “failed”.

Reference: a protein production outcome set (Wang et al. 2014)
